In experiment [1] the target is P140–P110 heterodimer of the purified Nap complex (full-length proteins, P110His strain) (Mycoplasma genitalium G37 (endogenous) | Mycoplasma genitalium G37) (UniProt P20796). The experiment can be described thus: cryo-EM structure; single-particle cryo-EM of the Nap complex purified from the M. genitalium P110His strain in octylglucoside, 25 μg/ml; 9.8 Å; rigid-body fitting of P140 alone and P110 alone; closed conformation.

Experiment [2] addresses T1, extracellular region of P140 (residues 23–1351) (Mycoplasma genitalium (strain G37), UniProt P20796 23-1351).
T1 construct: also called extracellular P140; source: E. coli B834 (DE3), purified (Histrap, Superdex 200), same protocol as for P110N
T1 sequence: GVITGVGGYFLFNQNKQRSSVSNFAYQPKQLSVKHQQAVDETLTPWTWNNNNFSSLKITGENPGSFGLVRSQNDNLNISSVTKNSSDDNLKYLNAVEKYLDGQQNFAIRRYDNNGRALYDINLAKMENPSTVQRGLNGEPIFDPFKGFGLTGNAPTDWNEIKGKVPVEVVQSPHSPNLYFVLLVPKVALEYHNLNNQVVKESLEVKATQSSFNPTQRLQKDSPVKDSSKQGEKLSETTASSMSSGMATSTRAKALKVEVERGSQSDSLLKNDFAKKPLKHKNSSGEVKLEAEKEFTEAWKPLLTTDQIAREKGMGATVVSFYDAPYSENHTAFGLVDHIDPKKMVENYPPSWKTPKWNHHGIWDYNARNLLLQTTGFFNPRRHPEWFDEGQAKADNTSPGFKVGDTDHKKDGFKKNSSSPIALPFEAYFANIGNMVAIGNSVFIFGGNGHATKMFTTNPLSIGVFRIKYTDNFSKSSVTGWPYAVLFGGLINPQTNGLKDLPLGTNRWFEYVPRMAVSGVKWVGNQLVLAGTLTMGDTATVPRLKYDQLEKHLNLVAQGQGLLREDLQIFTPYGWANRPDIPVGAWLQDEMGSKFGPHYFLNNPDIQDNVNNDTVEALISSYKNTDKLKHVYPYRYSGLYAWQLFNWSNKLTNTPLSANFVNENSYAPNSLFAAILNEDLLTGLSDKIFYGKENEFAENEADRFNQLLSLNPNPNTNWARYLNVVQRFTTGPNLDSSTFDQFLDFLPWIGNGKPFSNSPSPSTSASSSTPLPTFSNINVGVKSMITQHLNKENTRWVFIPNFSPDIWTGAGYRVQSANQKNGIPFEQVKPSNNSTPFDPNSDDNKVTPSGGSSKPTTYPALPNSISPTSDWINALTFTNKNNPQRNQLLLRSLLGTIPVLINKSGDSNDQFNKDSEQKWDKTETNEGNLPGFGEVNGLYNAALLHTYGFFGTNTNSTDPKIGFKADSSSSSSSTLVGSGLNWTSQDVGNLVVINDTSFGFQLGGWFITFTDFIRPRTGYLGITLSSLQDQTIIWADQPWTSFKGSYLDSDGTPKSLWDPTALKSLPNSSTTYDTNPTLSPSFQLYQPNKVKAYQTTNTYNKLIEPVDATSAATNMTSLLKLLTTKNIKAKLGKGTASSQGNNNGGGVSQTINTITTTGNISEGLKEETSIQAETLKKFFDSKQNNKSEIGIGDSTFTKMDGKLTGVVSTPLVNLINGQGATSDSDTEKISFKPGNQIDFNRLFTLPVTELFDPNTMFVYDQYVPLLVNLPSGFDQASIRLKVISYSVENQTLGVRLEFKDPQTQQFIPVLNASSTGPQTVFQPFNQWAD
The experiment can be described thus: cryo-EM structure; single-particle cryo-EM of the purified P140–P110 heterodimer (complete extracellular regions) at 20 μg/ml; 4.1 Å, non-isotropic; X-ray P140–P110N structure fitted as a rigid body. The conditions noted are these: both partners purified.

The target of experiment [3] is T1, extracellular region of P140 (residues …). In words: crystal structure; P140 and P110N mixed 1:1 and incubated 30 min at room temperature; crystals from 23% PEG 500MME, 4% PGA, 0.1 M sodium cacodylate pH 6.5, 20 °C; space group P2(1), four heterodimers in the asymmetric unit; 2.65 Å. The conditions noted are these: both partners purified.

With “P140–P110 heterodimer of the purified Nap complex (full-length proteins, P110His strain), P20796 59-1444; P22747 26-1053”, the stoichiometry N in experiment [1] amounted to 2.

B1: extracellular region of P110 (residues 23–938) (domain or fragment)
chain: ALANTFLVKEDSKNVTAYTPFATPITDSKSDLVSLAQLDSSYQIADQTIHNTNLFVLFKSRDVKVKYESSGSNNISFDSTSQGEKPSYVVEFTNSTNIGIKWTMVKKYQLDVPNVSSDMNQVLKNLILEQPLTKYTLNSSLAKEKGKTQREVHLGSGQANQWTSQRNQHDLNNNPSPNASTGFKLTTGNAYRKLSESWPIYEPIDGTKQGKGKDSSGWSSTEENEAKNDAPSVSGGGSSSGTFNKYLNTKQALESIGILFDDQTPRNVITQLYYASTSKLAVTNNHIVVMGNSFLPSMWYWVVERSAQENASNKPTWFANTNLDWGEDKQKQFVENQLGYKETTSTNSHNFHSKSFTQPAYLISGIDSVNDQIIFSGFKAGSVGYDSSSSSSSSSSSSTKDQALAWSTTTSLDSKTGYKDLVTNDTGLNGPINGSFSIQDTFSFVVPYSGNHTNNGTTGPIKTAYPVKKDQKSTVKINSLINATPLNSYGDEGIGVFDALGLNYNFKSNQERLPSRTDQIFVYGIVSPNELRSAKSSADSTGSDTKVNWSNTQSRYLPVPYNYSEGIIDADGFKRPENRGASVTTFSGLKSIAPDGFANSIANFSVGLKAGIDPNPVMSGKKANYGAVVLTRGGVVRLNFNPGNDSLLSTTDNNIAPISFSFTPFTAAESAVDLTTFKEVTYNQESGLWSYIFDSSLKPSHDGKQTPVTDNMGFSVITVSRTGIELNQDQATTTLDVAPSALAVQSGIQSTTQTLTGVLPLSEEFSAVIAKDSDQNKIDIYKNNNGLFEIDTQLSNSVATNNGGLAPSYTENRVDAWGKVEFADNSVLQARNLVDKTVDEIINTPEILNSFFRFTPAFEDQKATLVATKQSDTSLSVSPRIQFLDGNFYDLNSTIAGVPLNIGFPSRVFAGFAALP
notes: P110, product of gene MG_192 of Mycoplasma genitalium strain G37, residues 23–938 (complete extracellular region), amplified from a synthetic clone; source: E. coli B834 (DE3), purified (Histrap, Superdex 200), same protocol as for P110N
For the molecule B1, in experiment [2], the binding result is on record as “binds”.

B2: N-terminal domain of P110 (P110N: residues 23–827) (domain or fragment)
chain: ALANTFLVKEDSKNVTAYTPFATPITDSKSDLVSLAQLDSSYQIADQTIHNTNLFVLFKSRDVKVKYESSGSNNISFDSTSQGEKPSYVVEFTNSTNIGIKWTMVKKYQLDVPNVSSDMNQVLKNLILEQPLTKYTLNSSLAKEKGKTQREVHLGSGQANQWTSQRNQHDLNNNPSPNASTGFKLTTGNAYRKLSESWPIYEPIDGTKQGKGKDSSGWSSTEENEAKNDAPSVSGGGSSSGTFNKYLNTKQALESIGILFDDQTPRNVITQLYYASTSKLAVTNNHIVVMGNSFLPSMWYWVVERSAQENASNKPTWFANTNLDWGEDKQKQFVENQLGYKETTSTNSHNFHSKSFTQPAYLISGIDSVNDQIIFSGFKAGSVGYDSSSSSSSSSSSSTKDQALAWSTTTSLDSKTGYKDLVTNDTGLNGPINGSFSIQDTFSFVVPYSGNHTNNGTTGPIKTAYPVKKDQKSTVKINSLINATPLNSYGDEGIGVFDALGLNYNFKSNQERLPSRTDQIFVYGIVSPNELRSAKSSADSTGSDTKVNWSNTQSRYLPVPYNYSEGIIDADGFKRPENRGASVTTFSGLKSIAPDGFANSIANFSVGLKAGIDPNPVMSGKKANYGAVVLTRGGVVRLNFNPGNDSLLSTTDNNIAPISFSFTPFTAAESAVDLTTFKEVTYNQESGLWSYIFDSSLKPSHDGKQTPVTDNMGFSVITVSRTGIELNQDQATTTLDVAPSALAVQSGIQSTTQTLTGVLPLSEEFSAVIAKDSDQNKIDIYKNNNGLFEIDTQLSNSVATNNGGL
notes: P110, product of gene MG_192 of Mycoplasma genitalium strain G37, residues 23–827 (N-terminal domain), amplified from a synthetic clone and cloned into pOPINE; source: E. coli B834 (DE3), purified (Histrap, Superdex 200)
Turning to B2, the binding result in experiment [3] is given as “binds”.

The record behind these values is paper PMC7280502, “Structure and mechanism of the Nap adhesion complex from the human pathogen Mycoplasma genitalium” (Nature Communications, 2020).
